Experimental data reported in patent US20060142171A1, “Novel alkaline protease” (priority 2003, published 2006).
Several values for one entry are separate records, joined by “and”; a condition that tells them apart may be missing. Equal values may be shown once.

How the values were obtained:
[1] = Differential scanning calorimetry; type: physicochemical
Procedure: The influence of different parameters including pH, calcium ions, EDTA, and detergent on thermal stability of the AL protease was investigated by differential scanning calorimetry (DSC). Comparative studies were also performed with Subtilisin Carlsberg. Thermal scans of AL protease (0.3 mg protein/ml) and subtilisin (2.5 mg protein/ml in the presence of 1 mM phenyl-methanesulfonyl fluoride (PMSF); Sigma) were performed by increasing temperature from 25° C. to 95° C. at a scan rate of 1° C. per min on a VP-DSC (MicroCal, Northampton, Mass.). The thermograms were corrected by subtracting the base line, obtained from a blank scan of the no-enzyme solution, and normalized for protein concentration. The unfolding transition of the AL protease was fitted to a two-state model. The Tm (temperature at which heat capacity change is a maximum), the calorimetric (or true) enthalpy ΔHcal (peak area), and van't Hoff (or apparent) enthalpy AHVH (calculated from the shape of thermogram) were calculated using the Origin software provided by MicroCal.

elastin-orcein = assay: Elastolytic activity; type: biochemical; settings: 100 mM Tris-HCl buffer pH 8.8, 37° C.
Procedure: Elastolytic activity of AL protease was estimated by the method of (Tsai et al. 1983) with slight modification. The reaction mixture in a total volume of 1.5 ml comprised of 20 mg elastin-orcein and an appropriate amount of the enzyme in 100 mM Tris-HCl buffer pH 8.8, was incubated at 37° C. for 1 h with constant shaking. The substrate was removed by centrifugation and increase in optical density was measured at 590 nm. A control reaction was performed using the denatured enzyme as described above. The concentration of soluble products liberated was calculated from a standard curve using elastase. One unit was defined as the amount of enzyme, which solubilizes 100 μg of elastin under standard reaction conditions.

[2] = Calcium content by ICP-SMS; type: physicochemical; settings: after treatment with chelex
Procedure: One millilitre of the purified AL protease (3 mg protein) solution was dialyzed for 24 h at 4° C. against 1 L of 10 mM glycine-NaOH buffer, pH 10.0, pretreated for 48 h with Chelex 100 (BioRad, Hercules, Calif., USA; […]) placed in a dialysis bag. Thereafter the dialysis was repeated three times against the buffer containing Chelex 100 (1.5 g/l) for a total period of 36 h at 4° C. The buffer was prepared from deionised water and plastic containers were used throughout. The residual calcium content In the enzyme sample was determined using Inductively Coupled Plasma-Mass Spectrometry (ICP-SMS).

Isoelectric point = type: physicochemical
oxidized insulin B-chain = assay: Hydrolysis of oxidized insulin B-chain (MALDI-TOF); type: biochemical; settings: 50° C., enzyme-substrate molar ratio of 1:100, pH 9
Procedure: To 0.38 mg of the oxidized insulin B-chain (Sigma) dissolved in 1 ml of 10 mM Tris-HCl buffer, pH 9 was added 10 μl (5.5 units) of the AL enzyme. The mixture was incubated at 50° C. for 15 min and 12 h, respectively, after which one drop (approx 40 μl) of 0.1% (v/v) TFA was added to inactivate the enzyme.
Identification of the cleavage products was performed on a matrix assisted laser desorption ionisation reflectron-type time-of-flight (MALDI-TOF) mass spectrometer (REFLEX, Bruker-Franzen Analytik; Bremen, Germany).
Cleavage of oxidized insulin B-chain by the AL protease at 50° C. was investigated using an enzyme-substrate molar ratio of 1:100. The reaction products were analyzed by MALDI-TOF mass spectrometry and identified from the mass of corresponding peptide pairs.

keratin azure = assay: Keratinolytic activity; type: biochemical; settings: 10 mM glycine-NaOH, pH 10 at 50° C.
Procedure: The hydrolysis of keratin azure (Sigma) by the AL protease was determined according to the modified method of Santos et al. (1996). The reaction mixture (1.5 ml) comprising 0.5 ml of the enzyme solution and 10 mg keratin-azure in 10 mM glycine-NaOH buffer, pH 10 was incubated at 50° C. with constant shaking over 24 h period. The substrate was removed by centrifugation and liberation of the azo dye was measured at 595 nm. The reaction under similar conditions using heat-treated enzyme (by incubation in a boiling water bath for 15 min) was also run as a control. One unit (U) of keratinolytic activity was defined as an increase in the A595nm of 0.01 after 2 h.

[3] = pre-treated with chelex, or with 5 mM Ca^2+ or 10.0 mM EDTA, pH 10.0
[4] = untreated, 10 mM glycine-NaOH buffer, pH 10.0 (subtilisin with 1 mM PMSF)

B1: AL protease: thermostable alkaline, non-Ca2+-dependent serine protease isolated from Nesterenkonia sp. nov. strain AL (DSM 15380); SEQ. ID. NO. 1 (protein, listed as Nesterenkonia sp.)
chain: QNPADSPHIGKVFFSTNQGDFVCSANIVASANQSTVATAGHCLHDGNGGQFARNFVFAPAYDYGESEHGVWAAEELVTSAEWANRGDFEHDYAFAVLETKGGTTVQQQVGTASPIAFNQPRGQYYSAYGYPAAAPFNGQELHSCHGTATNDPMGSSTQGIPCNMTGGSSGGPWFLGQGTGGAQNSVNSYGYTFLPDVMFGPYFGSGAQQNYNYAST
Decrease in Tm ([1]; 1% SDS vs untreated, pH 10.0): 1.4 °C | Decrease in ΔHcal ([1]; 1% SDS vs untreated, pH 10.0): 4 kcal/mol | Tm ([1]; +0.1% SDS, pH 10.0): 74.5 ± 0.03 °C | ΔHcal ([1]; +0.1% SDS, pH 10.0): 158 ± 0.7 kcal/mol | Tm ([1]; +0.5% SDS, pH 10.0): 74.1 ± 0.02 °C | ΔHcal ([1]; +0.5% SDS, pH 10.0): 158 ± 0.7 kcal/mol | Tm ([1]; +1% SDS, pH 10.0): 73.1 ± 0.02 °C | ΔHcal ([1]; +1% SDS, pH 10.0): 154 ± 0.6 kcal/mol | Mean ratio of ΔHcal to ΔHvH ([1]; at any given pH): close to unity (±0.05) | Tm ([1]; pH 6): 69.7 °C and 69.7 ± 0.02 °C | ΔHcal ([1]; pH 6): 141 kcal/mol and 141.0 ± 0.5 kcal/mol | ΔHcal/ΔHvH ([1]; pH 6): 0.94 | ΔHvH ([1]; pH 6): 150.0 ± 1.2 kcal/mol | Tm ([1]; pH 7): 73.5 ± 0.02 °C | ΔHcal ([1]; pH 7): 149.0 ± 0.5 kcal/mol | ΔHcal/ΔHvH ([1]; pH 7): 1.02 | ΔHvH ([1]; pH 7): 147.0 ± 1.2 kcal/mol | Melting temperature ([1]; pH 7-10): about 74 °C | Tm ([1]; pH 8): 74.3 ± 0.02 °C | ΔHcal ([1]; pH 8): 158.0 ± 0.5 kcal/mol | ΔHcal/ΔHvH ([1]; pH 8): 0.93 | ΔHvH ([1]; pH 8): 171.0 ± 1.2 kcal/mol | Tm ([1]; pH 9): 74.5 ± 0.02 °C | ΔHcal ([1]; pH 9): 157.5 ± 0.5 kcal/mol | ΔHcal/ΔHvH ([1]; pH 9): 1.02 | ΔHvH ([1]; pH 9): 155.0 ± 1.3 kcal/mol | Tm ([1]; pH 10): 74.5 ± 0.03 °C | ΔHcal ([1]; pH 10): 158 kcal/mol and 158.0 ± 0.5 kcal/mol | ΔHcal/ΔHvH ([1]; pH 10): 0.95 | ΔHvH ([1]; pH 10): 167.0 ± 1.7 kcal/mol | Tm ([1]; pH 11): 72.0 °C and 72.6 ± 0.02 °C | ΔHcal ([1]; pH 11): 142 kcal/mol and 141.5 ± 0.5 kcal/mol | ΔHcal/ΔHvH ([1]; pH 11): 1.01 | ΔHvH ([1]; pH 11): 141.0 ± 1.3 kcal/mol | Melting temperature, Tm ([1]; pH range of 8.0-10.0): around 74 °C | Melting profile and denaturation temperature [1, 3]: unaltered | ΔHcal [1, 3]: around 158±0.5 kcal/mol | Tm [1, 4]: 74.5 ± 0.03 °C | ΔHcal [1, 4]: 158 ± 0.6 kcal/mol | Hydrolysis of elastin-orcein (elastin-orcein): able to hydrolyse elastin-orcein to a detectable level | Ca^2+ content [2]: 0.109 mol/mol | Isoelectric point (Isoelectric point): 4.2 | Initial cleavage site in oxidized insulin B-chain (oxidized insulin B-chain): Leu^15-Ty^16 | Time of main hydrolysis of keratin-azure (keratin azure): 2 to 12 h
